Assay results as given in patent US20240251767A1.

Molecular target: Spike protein of the COVID-19 Spike-ACE2 Binding Assay Kit (Raybiotech) (SARS-CoV2) (UniProt P0DTC2)

human SAT Nb-Fc control VH-Ab-8 (HAb8-S) (Fc fusion)
IC50: 79 pM
